Experimental findings from US20240182536A1 (MURAL ONCOLOGY, published 2024) are described below.

Residue numbers refer to the chain shown, from its start. In names and notes the source's numbering stands.

B1: mouse IL-18 G3T, H6K, K52A on monoFc scaffold (Fc fusion, not shown: small tags and cut ends)
chain: NFTRLKSTTAVIRNINDQVLFVDKRQPVFEDMTDIDQSASEPQTRLIIYMYADSEVRGLAVTLSVKDSKMSTLSSKNKIISFEEMDPPENIDDIQSDLIFFQKRVPGHNKMEFESSLYEGHFLACQKEDDAFKLILKKKDENGDKSVMFTLTNLHQSNGGPSVFLFPPKPKDTLMISRTPEVTCVVVDVSHEDPEVKFNWYVDGVEVHNAKTKPREEQYNSTYRVVSVLTVLHQDWLNGKEYKCKVSNKALPAPIEKTISKAKGQPREPQVYTLPPSREEMTKNQVNLTCLVKGFYPSDIAVEWESNGQPENNYKTTPPVLDSDGSFFLNSTLTVDKSRWQQGNVFSCSVMHEALHNHYTQKSLSLS
B2: mouse IL-18 G3V, K52A on monoFc scaffold (Fc fusion, not shown: small tags and cut ends)
chain: B1 chain with T3V, K6H
B3: mouse IL-18 G3T, K52A on monoFc scaffold (Fc fusion, not shown: small tags and cut ends)
chain: B1 chain with K6H
B4: mouse IL-18 G3V, H6K, K52A on monoFc scaffold (Fc fusion, not shown: small tags and cut ends)
chain: B1 chain with T3V

In the first assay the target is T1, mouse IL-18 binding protein (mouse, UniProt Q9Z0M9 29-193).
T1 sequence (looked up): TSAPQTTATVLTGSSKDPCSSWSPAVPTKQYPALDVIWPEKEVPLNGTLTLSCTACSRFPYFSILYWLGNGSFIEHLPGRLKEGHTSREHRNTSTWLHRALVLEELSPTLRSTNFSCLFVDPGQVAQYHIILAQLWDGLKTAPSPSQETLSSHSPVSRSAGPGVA
Briefly: cell-based or functional assay.
Regarding B1, the “mouse IL-18 reporter assay EC50, +Mouse IL-18BP 50 nM” value is 0.00169 nM.

On to B2, for which the “mouse IL-18 reporter assay EC50, +Mouse IL-18BP 50 nM” value worked out at 0.0364 nM.

Consider B3, for which the “mouse IL-18 reporter assay EC50, +Mouse IL-18BP 50 nM” value stood at 0.0208 nM.

Turning to B4, the “mouse IL-18 reporter assay EC50, +Mouse IL-18BP 50 nM” value came to 0.00486 nM.

In a further assay the target is T2, mouse IL-18 receptors on PathHunter U2OS mIL18-NF-kb reporter cells (mouse, UniProt Q61098 20-537; Q9Z2B1 20-614).
T2 sequence (looked up) 1: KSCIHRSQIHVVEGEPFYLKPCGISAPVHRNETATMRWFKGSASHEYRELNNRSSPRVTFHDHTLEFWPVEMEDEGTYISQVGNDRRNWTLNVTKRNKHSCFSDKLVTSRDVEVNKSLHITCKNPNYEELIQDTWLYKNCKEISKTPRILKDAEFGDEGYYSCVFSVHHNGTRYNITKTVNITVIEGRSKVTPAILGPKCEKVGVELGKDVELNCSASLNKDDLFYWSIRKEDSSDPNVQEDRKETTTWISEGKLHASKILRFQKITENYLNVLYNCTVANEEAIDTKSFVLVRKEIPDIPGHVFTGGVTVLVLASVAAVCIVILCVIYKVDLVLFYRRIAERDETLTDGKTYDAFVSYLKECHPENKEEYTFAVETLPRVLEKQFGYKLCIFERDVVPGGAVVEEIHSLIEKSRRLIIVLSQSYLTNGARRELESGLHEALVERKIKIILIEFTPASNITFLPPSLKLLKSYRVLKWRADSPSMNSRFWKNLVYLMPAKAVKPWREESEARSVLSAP
T2 sequence (looked up) 2: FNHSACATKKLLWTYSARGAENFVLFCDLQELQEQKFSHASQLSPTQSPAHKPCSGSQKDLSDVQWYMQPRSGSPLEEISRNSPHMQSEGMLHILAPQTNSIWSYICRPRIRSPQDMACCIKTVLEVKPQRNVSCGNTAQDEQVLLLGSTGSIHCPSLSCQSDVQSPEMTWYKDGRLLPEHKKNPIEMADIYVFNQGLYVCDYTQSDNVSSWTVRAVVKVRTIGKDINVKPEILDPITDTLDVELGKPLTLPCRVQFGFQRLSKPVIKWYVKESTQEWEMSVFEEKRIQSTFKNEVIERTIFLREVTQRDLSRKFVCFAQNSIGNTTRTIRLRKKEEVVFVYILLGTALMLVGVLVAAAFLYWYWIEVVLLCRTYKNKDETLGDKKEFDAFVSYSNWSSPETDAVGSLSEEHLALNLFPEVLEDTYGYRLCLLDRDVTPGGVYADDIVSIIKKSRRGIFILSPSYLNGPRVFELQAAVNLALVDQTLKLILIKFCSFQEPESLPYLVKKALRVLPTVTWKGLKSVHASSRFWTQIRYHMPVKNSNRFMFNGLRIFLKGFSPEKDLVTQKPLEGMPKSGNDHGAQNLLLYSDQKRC
Briefly: cell-based or functional assay.
For the molecule B1, the “mouse IL-18 reporter assay EC50, without mouse IL-18BP” value came to 0.00176 nM.

For B2, the “mouse IL-18 reporter assay EC50, without mouse IL-18BP” value was 0.0007 nM.

With B3, the “mouse IL-18 reporter assay EC50, without mouse IL-18BP” value turned out to be 0.00124 nM.

As to B4, the “mouse IL-18 reporter assay EC50, without mouse IL-18BP” value is 0.0009 nM.

The target of another assay is T1, mouse IL-18 binding protein. Briefly: Octet BLI, monoFc scaffold. The method, then:
(§1) Octet 96red instrument was used to determine affinities of IL18 proteins to BP or receptors. 5-10 ug/ml analyte proteins were used for loading on Sartorius tips (AHC or SA). […] 120-180 s loading, 200 s association and 800 s dissociation were used for kinetics. 3-7 data points were used to calculate affinities.
(§2) Several mouse variants were next tested for binding affinity to mouse IL-18R alpha and mouse IL-18BP.
The term Kd denotes the free concentration of one partner at which half of the binding sites on the other are occupied at equilibrium, for simple one-to-one binding. Consider B1, for which the Kd was found to be 78 nM.

Molecule B2 came in with a Kd of 2 nM.

B3 had a Kd of 11 nM.

With B4, the equilibrium dissociation constant (Kd) was 14 nM.

The next assay concerns the target T3, mouse IL-18 receptor alpha (mouse, UniProt Q61098 20-326, limits assumed).
T3 construct: also called Mouse IL18Ra; mouse IL-18R alpha
T3 sequence (looked up): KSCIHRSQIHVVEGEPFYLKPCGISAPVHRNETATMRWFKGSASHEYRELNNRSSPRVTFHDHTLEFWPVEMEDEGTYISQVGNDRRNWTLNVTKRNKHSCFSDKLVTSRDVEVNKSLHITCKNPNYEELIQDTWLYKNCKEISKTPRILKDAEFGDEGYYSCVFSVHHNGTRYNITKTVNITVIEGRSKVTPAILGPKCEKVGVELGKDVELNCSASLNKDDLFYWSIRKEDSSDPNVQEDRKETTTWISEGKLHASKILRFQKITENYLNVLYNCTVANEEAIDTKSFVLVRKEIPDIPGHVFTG
The assay can be described thus: Octet BLI, monoFc scaffold. The procedure:
as §1, §2
B1 had a dissociation constant (Kd) of 42.7 nM.

The molecule B2 came in with a dissociation constant Kd of 8.85 nM.

B3: the Kd worked out at 97 nM.

In turn, B4 had a Kd of 4.85 nM.
